Experiments:
biotinylated hBLyS-ECD [1] = molecular target: T1, biotinylated hBLyS-ECD (human, UniProt Q9Y275 134-285, biotinylated with Biotin-X-X-NHS (molar ratio 7:1); sites not stated); experiment: competition ELISA; competitor 35E6F7C3
T1 construct: also called biotinylated immunogen; biotinylated hBLvS-ECD
Experimental: (§1) The purified human BLyS antibody and hybridoma antibody were subjected to competitive enzyme-linked immunosorbent assay and the epitopes binding by different antibodies were analyzed.
(§2) Purified BLyS antibody was first diluted to a final concentration of 1.0 μg/mL with PBS, then aliquoted into a 96-well ELISA plate at 50 μL per well, and the plate was subsequently sealed with plastic film and incubated at 4° C. overnight. On the next day the plate was rinsed four times with the plate washing buffer [PBS buffer containing 0.05% (v/v) Tween20] and mixed with blocking solution [PBS buffer containing 0.05% (v/v) Tween20 and 1% (w/w) BSA], and then blocked at 37° C. for 1 hour. The blocking solution was removed, and the competitive antibody and IgG control were diluted to a final concentration of 40 μg/mL with PBS and then aliquoted into the 96-well ELISA plate at 50 μL per well. The biotinylated hBLyS-ECD was then diluted with PBS to a final concentration of 2 ng/mL and pipetted into the 96-well ELISA plate at 50 μL per well. The final concentration of competitive antibody and hBLyS-ECD was 20 μg/mL and 1 ng/mL, respectively. After incubation at 37° C. for 1 hour, the plate was rinsed four times with the plate washing buffer [PBS buffer containing 0.05% (v/v) Tween20]. 100 μL per well of HRP-labeled (horseradish peroxidase) streptavidin (purchased from Sigma) was added into the plate and the plate was incubated at 37° C. for 1 hour. The plate was then washed four times with the plate washing buffer [PBS buffer containing 0.05% (v/v) Tween20]. 100 μL of TMB substrate was aliquoted into each well and after incubation at room temperature for 5 minutes, 100 μL of stop solution (1.0 N HCl) was aliquoted into each well. A₄₅₀ₙₘ values were read by an ELISA plate reader (SpectraMax M5e, purchased from Molecular Device) and the results were shown in Tables 18A-18B. […] The data shown in the table is the inhibitory rate (%) of the binding level of the original antibody to hBLyS-ECD after addition of the competitive antibody.

biotinylated hBLyS-ECD [2] = molecular target: T1, biotinylated hBLyS-ECD; experiment: competition ELISA; competitor 97A3C2H4
Experimental: as §1, §2

biotinylated hBLyS-ECD [3] = molecular target: T1, biotinylated hBLyS-ECD; experiment: competition ELISA; competitor 67A2E1D10
Experimental: as §1, §2

biotinylated hBLyS-ECD [4] = molecular target: T1, biotinylated hBLyS-ECD; experiment: competition ELISA; competitor 8E7D9C7F5
Experimental: as §1, §2

biotinylated hBLyS-ECD [5] = molecular target: T1, biotinylated hBLyS-ECD; experiment: competition ELISA; competitor 93C6F10D3
Experimental: as §1, §2

biotinylated hBLyS-ECD [6] = molecular target: T1, biotinylated hBLyS-ECD; experiment: competition ELISA; competitor 111D10D6G3
Experimental: as §1, §2

biotinylated hBLyS-ECD [7] = molecular target: T1, biotinylated hBLyS-ECD; experiment: competition ELISA; competitor 78C11D2D12
Experimental: as §1, §2

[8] = molecular target: T2, extracellular domain of human BLyS protein (hBLyS-ECD), His-tagged, Ala134-Leu285 (human, UniProt Q9Y275 134-285); experiment: cell-based or functional assay
biotinylated hBLyS-ECD [9] = molecular target: T3, biotinylated hBLyS-ECD (human, UniProt Q9Y275 134-285, biotinylated with Biotin-X-X-NHS (molar ratio 7:1), sites not stated); experiment: ELISA: biotinylated hBLyS-ECD captured on streptavidin, antibody titrated, HRP secondary antibody
T3 construct: The hBLyS-ECD of Embodiment 1 after biotinylation (Embodiment 2); also called biotinylated immunogen; BLyS protein; not shown: His tag of the pCPC vector

[10] = molecular target: T2, extracellular domain of human BLyS …; experiment: cell-based or functional assay; remark: listed apart in the source
[11] = molecular target: T2, extracellular domain of human BLyS …; experiment: SPR (Biacore), antibody captured by anti-human Fc, hBLyS-ECD as analyte

inhibitory rate (%) (biotinylated hBLyS-ECD [1])	inhibitory rate (%) (biotinylated hBLyS-ECD [2])	inhibitory rate (%) (biotinylated hBLyS-ECD [3])	inhibitory rate (%) (biotinylated hBLyS-ECD [4])	inhibitory rate (%) (biotinylated hBLyS-ECD [5])	inhibitory rate (%) (biotinylated hBLyS-ECD [6])	inhibitory rate (%) (biotinylated hBLyS-ECD [7])	Binder	further results
22	26	96	27	41	95	86	111D10D6G3 (antibody, V domains shown, Mouse hybridoma antibody purified on Protein G) VH: QVQLQQPGAELVKPGASVKMSCKASGYTFTRHWITWVKQRPGQGLEWIGDIFPGSGSINYNEKFKSEATLTVEKSSSTAYMQLSSLTSEDSAVYYCARGDVDVWGTGTTVTVSS VL: DIQMTQSPSSLSASLGERVSLTCRASQEIRGYLSWLQQKPNGTIKRLIYAASTLDSGVPKRFSATRSGSDFSLTISSLESEDFADYYCLQYASYPFTFGSGTKLEIK	
42	90	97	94	79	95	92	93C6F10D3 (antibody, V domains shown, Mouse hybridoma antibody purified on Protein G) VH: EVQLVESGGGLVTPGGSLKLSCVASGFAFSTYGMSWVRQTPERRLEWVAYISGGGGSIYYPDSVKGRFTISRDNAKNILYLQMSSLKSEDTAMYHCTRHPDLLLRYDYALDHWGQGTSVTVSS VL: DIQMTQSPASLSASVGETVTITCRASENIHIYLAWYQQKQGKSPQLLVYNGKTLADGVPSRFSGSGSGTQYSLKINTLQPEDFGNYYCQHFWNSTWTFGGGTKLEIK	

Continued, binder first:

Binder	inhibitory rate (%) (biotinylated hBLyS-ECD [1])	inhibitory rate (%) (biotinylated hBLyS-ECD [2])	inhibitory rate (%) (biotinylated hBLyS-ECD [3])	inhibitory rate (%) (biotinylated hBLyS-ECD [4])	inhibitory rate (%) (biotinylated hBLyS-ECD [5])	inhibitory rate (%) (biotinylated hBLyS-ECD [6])	inhibitory rate (%) (biotinylated hBLyS-ECD [7])	further results
97A3C2H4 (antibody, V domains shown, Mouse hybridoma antibody purified on Protein G) VH: EVKLVESGGGLVQPGGSLKLSCAASGFTFSTYTMSWVRQTPEKRLEWVAYISYGGGSTSYPDTVKGRFTISRDNAKNTLYLQMSSLKSEDTAIYYCTRHVTVVENSMDYWGQGTSVTVSS VL: DILLTQSPDILSVSPGERVSFSCRASQSIGTSIHWYQQRTNGSPRLLIKYVSESFSGTPSRFSGSGSGTAFTLTINSVESEDIADYYCQQTHSWPWTFGGGTKLEIK	55	89	96	93	93	93	96	
35E6F7C3 (antibody, V domains shown, Mouse hybridoma antibody purified on Protein G) VH: EVQLQQSGAELVKPGASVKLSCTAAGFNIQDTYIHWVKQRPEQGLEWIGRIDPANANTVYDPKFQGKATITADTSSNTAYLQVSSLTSEDTAVYYCASPVITAGFAYWGQGTLVTVSA VL: QIVLTQSPAIMSASPGEKVTMTCGASSSVNYVHWYQQKSGTSPKRWIYDTSKLASGVPARFSGSGSGTSYSLTISSMEAEDAATYYCQQWTRSPLTFGAGTKVELK	91	26	33	27	33	38	36	
78C11D2D12 (antibody, V domains shown, Mouse hybridoma antibody purified on Protein G) VH: QVQLQQSGAELVRPGTSVKISCKASGYAFTNYWLGWVKQRPGHGLEWIGDIYPGSGNTYYNEKFKGKATLTADKSSSTAYMQLSSLTSEDSAVFFCAAYLYAMDYWGQGTSVTVSS VL: QIVLTQSPAIMSASPGEKVTITCSASSSVSYMHWFQQKPGTSPKLWIYSASNLASGVPARFSGSGSGTSYSLTISRMEAEDAATYYCQQRGSYPFTFGSGTKLEIK	29	46	95	37	58	95	88	
L1D12 (antibody, V domains shown) VH: QVQLVQSGGGLVQPGGSLRLSCAASGFTVSSNYMSWVRQAPGKGLEWVSVIYSGGSTYYADSVKGRFTISRDNSKNTLYLQMNSLRAEDTAVYYCARGFHDILTGYGMDVWGQGTTVTVSS VL: SSELTQDPAVSVALGQTVRITCQGDSLRNYYAGWYQQKPGQAPVLVIYGKNNRPSGIPDRFSGSSSGNTASLTITGTQAEDEADYYCSSRDNSGTHLVEFGGGTKLTVL								Proportion of B lymphocytes in splenocytes (%), in vivo in mice [8]: 26.8%
c67A2E1D10 (antibody, human IgG1, V domains shown, also called BLyS chimeric antibody) VH: EVQLQQSGAELVKPGASVKLSCTASGFNIKNYYMHWVKQRTEEGLEWIGRIDPEDGETKYAPKFQAKATITADTSSNTAYLQLSSLTSEDTAVYFCARKGYYGNYGAWFAYWGQGTLVTVSA VL: DIQMTQSPASLSVSVGETVTITCRASEDLYSNLAWYQQKQGKSPQLLVYAATFLADGVPSRFSGSGSGTQYSLKINSLQSEDFGNYYCQHFWGTPPTFGGGTKLEIK								EC50 (read off the curve) (biotinylated hBLyS-ECD [9]): ~0.1 nM
67A2E1D10 (antibody, V domains shown, Mouse hybridoma antibody purified on Protein G) VH: EVQLQQSGAELVKPGASVKLSCTASGFNIKNYYMHWVKQRTEEGLEWIGRIDPEDGETKYAPKFQAKATITADTSSNTAYLQLSSLTSEDTAVYFCARKGYYGNYGAWFAYWGQGTLVTVSA VL: DIQMTQSPASLSVSVGETVTITCRASEDLYSNLAWYQQKQGKSPQLLVYAATFLADGVPSRFSGSGSGTQYSLKINSLQSEDFGNYYCQHFWGTPPTFGGGTKLEIK	18	75	93	63	44	86	80	
c93C6F10D3 (antibody, V domains shown) VH: EVQLVESGGGLVTPGGSLKLSCVASGFAFSTYGMSWVRQTPERRLEWVAYISGGGGSIYYPDSVKGRFTISRDNAKNILYLQMSSLKSEDTAMYHCTRHPDLLLRYDYALDHWGQGTSVTVSS VL: DIQMTQSPASLSASVGETVTITCRASENIHIYLAWYQQKQGKSPQLLVYNGKTLADGVPSRFSGSGSGTQYSLKINTLQPEDFGNYYCQHFWNSTWTFGGGTKLEIK								OD450 nm (as headed), mouse B lymphocyte proliferation; antibody 0 nM [10]: 4320; OD450 nm (as headed), mouse B lymphocyte proliferation; antibody 0.000256 nM [10]: 4600; OD450 nm (as headed), mouse B lymphocyte proliferation; antibody 0.00128 nM [10]: 4520; OD450 nm (as headed), mouse B lymphocyte proliferation; antibody 0.0064 nM [10]: 4920; OD450 nm (as headed), mouse B lymphocyte proliferation; antibody 0.032 nM [10]: 4520; OD450 nm (as headed), mouse B lymphocyte proliferation; antibody 0.16 nM [10]: 4300; OD450 nm (as headed), mouse B lymphocyte proliferation; antibody 0.8 nM [10]: 1090; OD450 nm (as headed), mouse B lymphocyte proliferation; antibody 4 nM [10]: 527; OD450 nm (as headed), mouse B lymphocyte proliferation; antibody 20 nM [10]: 434; OD450 nm (as headed), mouse B lymphocyte proliferation; antibody 100 nM [10]: 389; Proportion of B lymphocytes in splenocytes (%), in vivo in mice [8]: 27.1%; Kd [11]: 0.386 nM; koff [11]: 0.000212 s⁻¹; kon [11]: 549000 M⁻¹ s⁻¹
c93C6F10D3 (antibody, human IgG1, V domains shown, also called BLyS chimeric antibody) VH: EVQLVESGGGLVTPGGSLKLSCVASGFAFSTYGMSWVRQTPERRLEWVAYISGGGGSIYYPDSVKGRFTISRDNAKNILYLQMSSLKSEDTAMYHCTRHPDLLLRYDYALDHWGQGTSVTVSS VL: DIQMTQSPASLSASVGETVTITCRASENIHIYLAWYQQKQGKSPQLLVYNGKTLADGVPSRFSGSGSGTQYSLKINTLQPEDFGNYYCQHFWNSTWTFGGGTKLEIK								EC50 (read off the curve) (biotinylated hBLyS-ECD [9]): ~0.07 nM
